T1: APBA1_1, Q02410
T1 sequence (Q02410 651-752, limits assumed, looked up): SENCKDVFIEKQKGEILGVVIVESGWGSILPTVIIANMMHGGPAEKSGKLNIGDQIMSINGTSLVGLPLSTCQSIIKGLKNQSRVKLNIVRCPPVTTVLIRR

T2: APBA2_1, Q99767
T2 sequence (Q99767 563-664, limits assumed, looked up): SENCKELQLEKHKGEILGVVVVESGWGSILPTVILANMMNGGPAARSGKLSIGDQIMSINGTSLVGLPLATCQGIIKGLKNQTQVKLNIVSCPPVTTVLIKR

T3: APBA2_2, Q99767
T3 sequence (Q99767 654-744, limits assumed, looked up): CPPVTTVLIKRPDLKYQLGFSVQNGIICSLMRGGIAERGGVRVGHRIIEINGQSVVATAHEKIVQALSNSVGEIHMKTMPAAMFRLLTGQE

T4: ARHGEF11, O15085
T4 sequence (O15085 42-136, limits assumed, looked up): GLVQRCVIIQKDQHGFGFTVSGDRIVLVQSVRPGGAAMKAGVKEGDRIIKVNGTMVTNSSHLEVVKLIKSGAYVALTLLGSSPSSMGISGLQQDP

T5: DFNB31_1, Q9P202
T5 sequence (Q9P202 135-233, limits assumed, looked up): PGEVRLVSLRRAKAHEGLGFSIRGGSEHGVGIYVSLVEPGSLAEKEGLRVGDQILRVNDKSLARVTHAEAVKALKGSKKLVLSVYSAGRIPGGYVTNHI

T6: DLG3_3, Q92796
T6 sequence (Q92796 374-475, limits assumed, looked up): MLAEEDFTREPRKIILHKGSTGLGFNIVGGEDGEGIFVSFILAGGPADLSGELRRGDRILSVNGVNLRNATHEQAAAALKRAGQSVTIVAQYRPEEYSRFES

T7: GRIP1_2, Q9Y3R0
T7 sequence (Q9Y3R0 145-248, limits assumed, looked up): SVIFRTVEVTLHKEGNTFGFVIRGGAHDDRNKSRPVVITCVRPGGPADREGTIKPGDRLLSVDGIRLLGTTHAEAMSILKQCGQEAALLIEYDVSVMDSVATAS

T8: GRIP1_5, Q9Y3R0
T8 sequence (Q9Y3R0 568-668, limits assumed, looked up): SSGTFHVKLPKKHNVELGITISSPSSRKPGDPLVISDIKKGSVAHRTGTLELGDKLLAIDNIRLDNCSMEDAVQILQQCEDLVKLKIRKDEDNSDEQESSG

T9: MPDZ_5, O75970
T9 sequence (O75970 695-796, limits assumed, looked up): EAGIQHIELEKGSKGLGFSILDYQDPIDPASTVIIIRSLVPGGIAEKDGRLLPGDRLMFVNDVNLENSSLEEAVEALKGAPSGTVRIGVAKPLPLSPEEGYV

T10: MPP2, Q14168
T10 sequence (Q14168 180-250, limits assumed, looked up): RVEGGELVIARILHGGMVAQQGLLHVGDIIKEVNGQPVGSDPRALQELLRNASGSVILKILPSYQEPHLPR

T11: NHERF3_3, Q5T2W1
T11 sequence (Q5T2W1 238-333, limits assumed, looked up): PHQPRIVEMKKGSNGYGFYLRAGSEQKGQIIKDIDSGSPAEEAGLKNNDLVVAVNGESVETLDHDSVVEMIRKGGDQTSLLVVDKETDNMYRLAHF

T12: SNTB1, Q13884
T12 sequence (Q13884 107-205, limits assumed, looked up): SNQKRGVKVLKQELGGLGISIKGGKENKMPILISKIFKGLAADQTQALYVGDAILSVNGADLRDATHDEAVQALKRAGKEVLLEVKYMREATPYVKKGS


biological target: T1, APBA1_1, Q02410; assay: holdup assay; parameters: key: below the threshold = too weak to quantify, mostly under pKd 3.1 to 4; details: plain residues with an end cap or a label only (N-terminal biotin on a linker: ado-ado)

pKd | Binder
below the threshold | PKLMGVETVV [DUSP10, Q9Y6W6]

biological target: T2, APBA2_1, Q99767; assay: holdup assay; parameters: key: below the threshold = too weak to quantify, mostly under pKd 3.1 to 4; details: plain residues with an end cap or a label only (N-terminal biotin on a linker: ado-ado)

pKd | Binder
below the threshold | PKLMGVETVV [DUSP10, Q9Y6W6]

biological target: T3, APBA2_2, Q99767; assay: holdup assay; parameters: key: below the threshold = too weak to quantify, mostly under pKd 3.1 to 4; details: plain residues with an end cap or a label only (N-terminal biotin on a linker: ado-ado)

pKd | Binder
below the threshold | PKLMGVETVV [DUSP10, Q9Y6W6]

biological target: T4, ARHGEF11, O15085; assay: holdup assay; parameters: key: below the threshold = too weak to quantify, mostly under pKd 3.1 to 4; details: plain residues with an end cap or a label only (N-terminal biotin on a linker: ado-ado)

pKd | Binder
4 | PKLMGVETVV [DUSP10, Q9Y6W6]

biological target: CASK, O14936; assay: holdup assay; parameters: key: below the threshold = too weak to quantify, mostly under pKd 3.1 to 4; details: plain residues with an end cap or a label only (N-terminal biotin on a linker: ado-ado)
Sequence (O14936 487-570): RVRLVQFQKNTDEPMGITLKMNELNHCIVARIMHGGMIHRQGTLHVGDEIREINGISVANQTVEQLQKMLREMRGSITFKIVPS

pKd | Binder
below the threshold | PKLMGVETVV [DUSP10, Q9Y6W6]

biological target: T5, DFNB31_1, Q9P202; assay: holdup assay; parameters: key: below the threshold = too weak to quantify, mostly under pKd 3.1 to 4; details: plain residues with an end cap or a label only (N-terminal biotin on a linker: ado-ado)

pKd | Binder
4.09 | PKLMGVETVV [DUSP10, Q9Y6W6]

biological target: DLG1_2, Q12959; assay: holdup assay; parameters: key: below the threshold = too weak to quantify, mostly under pKd 3.1 to 4; details: plain residues with an end cap or a label only (N-terminal biotin on a linker: ado-ado)
Sequence (Q12959 314-412): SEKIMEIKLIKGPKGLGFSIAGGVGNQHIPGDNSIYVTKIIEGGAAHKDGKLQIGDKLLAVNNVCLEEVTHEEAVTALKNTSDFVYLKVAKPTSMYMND

pKd | Binder
5.61 | PKLMGVETVV [DUSP10, Q9Y6W6]

biological target: DLG1_3, Q12959; assay: holdup assay; parameters: key: below the threshold = too weak to quantify, mostly under pKd 3.1 to 4; details: plain residues with an end cap or a label only (N-terminal biotin on a linker: ado-ado)
Sequence (Q12959 457-571): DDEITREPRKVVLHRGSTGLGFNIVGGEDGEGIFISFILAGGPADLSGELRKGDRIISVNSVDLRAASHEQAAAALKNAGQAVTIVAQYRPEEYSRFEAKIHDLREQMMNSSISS

pKd | Binder
4.52 | PKLMGVETVV [DUSP10, Q9Y6W6]

biological target: T6, DLG3_3, Q92796; assay: holdup assay; parameters: key: below the threshold = too weak to quantify, mostly under pKd 3.1 to 4; details: plain residues with an end cap or a label only (N-terminal biotin on a linker: ado-ado)

pKd | Binder
3.91 | PKLMGVETVV [DUSP10, Q9Y6W6]

biological target: DLG4_1, P78352; assay: holdup assay; parameters: key: below the threshold = too weak to quantify, mostly under pKd 3.1 to 4; details: plain residues with an end cap or a label only (N-terminal biotin on a linker: ado-ado)
Sequence (P78352 62-152): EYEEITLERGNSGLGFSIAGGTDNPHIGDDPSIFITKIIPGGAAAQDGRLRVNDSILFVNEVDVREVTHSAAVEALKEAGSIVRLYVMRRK

pKd | Binder
5.16 | PKLMGVETVV [DUSP10, Q9Y6W6]

biological target: FRMPD4, Q14CM0; assay: holdup assay; parameters: key: below the threshold = too weak to quantify, mostly under pKd 3.1 to 4; details: plain residues with an end cap or a label only (N-terminal biotin on a linker: ado-ado)
Sequence (Q14CM0 67-160): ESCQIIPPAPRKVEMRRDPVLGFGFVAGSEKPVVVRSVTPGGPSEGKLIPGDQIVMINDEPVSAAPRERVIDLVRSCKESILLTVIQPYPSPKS

pKd | Binder
below the threshold | PKLMGVETVV [DUSP10, Q9Y6W6]

biological target: GOPC, Q9HD26; assay: holdup assay; parameters: key: below the threshold = too weak to quantify, mostly under pKd 3.1 to 4; details: plain residues with an end cap or a label only (N-terminal biotin on a linker: ado-ado)

pKd | Binder
4.25 | PKLMGVETVV [DUSP10, Q9Y6W6]

biological target: GORASP2, Q9H8Y8; assay: holdup assay; parameters: key: below the threshold = too weak to quantify, mostly under pKd 3.1 to 4; details: plain residues with an end cap or a label only (N-terminal biotin on a linker: ado-ado)

pKd | Binder
5.03 | PKLMGVETVV [DUSP10, Q9Y6W6]

biological target: GRID2IP_2, A4D2P6; assay: holdup assay; parameters: key: below the threshold = too weak to quantify, mostly under pKd 3.1 to 4; details: plain residues with an end cap or a label only (N-terminal biotin on a linker: ado-ado)
Sequence (A4D2P6 272-370): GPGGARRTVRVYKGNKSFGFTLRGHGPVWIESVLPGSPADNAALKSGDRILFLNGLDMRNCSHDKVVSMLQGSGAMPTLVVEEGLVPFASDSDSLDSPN

pKd | Binder
below the threshold | PKLMGVETVV [DUSP10, Q9Y6W6]

biological target: T7, GRIP1_2, Q9Y3R0; assay: holdup assay; parameters: key: below the threshold = too weak to quantify, mostly under pKd 3.1 to 4; details: plain residues with an end cap or a label only (N-terminal biotin on a linker: ado-ado)

pKd | Binder
below the threshold | PKLMGVETVV [DUSP10, Q9Y6W6]

biological target: T8, GRIP1_5, Q9Y3R0; assay: holdup assay; parameters: key: below the threshold = too weak to quantify, mostly under pKd 3.1 to 4; details: plain residues with an end cap or a label only (N-terminal biotin on a linker: ado-ado)

pKd | Binder
below the threshold | PKLMGVETVV [DUSP10, Q9Y6W6]

biological target: IL16_1, Q14005; assay: holdup assay; parameters: key: below the threshold = too weak to quantify, mostly under pKd 3.1 to 4; details: plain residues with an end cap or a label only (N-terminal biotin on a linker: ado-ado)
Sequence (Q14005 210-306): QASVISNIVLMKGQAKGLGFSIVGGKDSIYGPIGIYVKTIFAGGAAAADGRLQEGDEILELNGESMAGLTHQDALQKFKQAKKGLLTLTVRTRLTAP

pKd | Binder
4.38 | PKLMGVETVV [DUSP10, Q9Y6W6]

biological target: IL16_3, Q14005; assay: holdup assay; parameters: key: below the threshold = too weak to quantify, mostly under pKd 3.1 to 4; details: plain residues with an end cap or a label only (N-terminal biotin on a linker: ado-ado)
Sequence (Q14005 1107-1207): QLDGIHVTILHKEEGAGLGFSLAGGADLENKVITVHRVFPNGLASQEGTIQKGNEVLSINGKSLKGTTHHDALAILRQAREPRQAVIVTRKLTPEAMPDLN

pKd | Binder
below the threshold | PKLMGVETVV [DUSP10, Q9Y6W6]

biological target: LNX1_1, Q8TBB1; assay: holdup assay; parameters: key: below the threshold = too weak to quantify, mostly under pKd 3.1 to 4; details: plain residues with an end cap or a label only (N-terminal biotin on a linker: ado-ado)
Sequence (Q8TBB1 261-371): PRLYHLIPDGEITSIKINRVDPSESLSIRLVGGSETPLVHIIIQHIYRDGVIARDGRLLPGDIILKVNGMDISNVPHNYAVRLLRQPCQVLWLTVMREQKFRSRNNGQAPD

pKd | Binder
4.06 | PKLMGVETVV [DUSP10, Q9Y6W6]

biological target: LNX1_2, Q8TBB1; assay: holdup assay; parameters: key: below the threshold = too weak to quantify, mostly under pKd 3.1 to 4; details: plain residues with an end cap or a label only (N-terminal biotin on a linker: ado-ado)
Sequence (Q8TBB1 371-470): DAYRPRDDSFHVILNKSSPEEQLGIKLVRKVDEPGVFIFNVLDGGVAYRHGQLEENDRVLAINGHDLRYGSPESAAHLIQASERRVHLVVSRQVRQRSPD

pKd | Binder
3.96 | PKLMGVETVV [DUSP10, Q9Y6W6]

biological target: T9, MPDZ_5, O75970; assay: holdup assay; parameters: key: below the threshold = too weak to quantify, mostly under pKd 3.1 to 4; details: plain residues with an end cap or a label only (N-terminal biotin on a linker: ado-ado)

pKd | Binder
3.58 | PKLMGVETVV [DUSP10, Q9Y6W6]

biological target: T10, MPP2, Q14168; assay: holdup assay; parameters: key: below the threshold = too weak to quantify, mostly under pKd 3.1 to 4; details: plain residues with an end cap or a label only (N-terminal biotin on a linker: ado-ado)

pKd | Binder
below the threshold | PKLMGVETVV [DUSP10, Q9Y6W6]

biological target: T11, NHERF3_3, Q5T2W1; assay: holdup assay; parameters: key: below the threshold = too weak to quantify, mostly under pKd 3.1 to 4; details: plain residues with an end cap or a label only (N-terminal biotin on a linker: ado-ado)

pKd | Binder
below the threshold | PKLMGVETVV [DUSP10, Q9Y6W6]

biological target: NHERF4_4, Q86UT5; assay: holdup assay; parameters: key: below the threshold = too weak to quantify, mostly under pKd 3.1 to 4; details: plain residues with an end cap or a label only (N-terminal biotin on a linker: ado-ado)
Sequence (Q86UT5 464-550): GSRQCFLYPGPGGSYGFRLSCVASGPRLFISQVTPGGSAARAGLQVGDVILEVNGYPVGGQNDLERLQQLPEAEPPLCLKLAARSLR

pKd | Binder
below the threshold | PKLMGVETVV [DUSP10, Q9Y6W6]

biological target: T12, SNTB1, Q13884; assay: holdup assay; parameters: key: below the threshold = too weak to quantify, mostly under pKd 3.1 to 4; details: plain residues with an end cap or a label only (N-terminal biotin on a linker: ado-ado)

pKd | Binder
5.17 | PKLMGVETVV [DUSP10, Q9Y6W6]

biological target: TJP1_3, Q07157; assay: holdup assay; parameters: key: below the threshold = too weak to quantify, mostly under pKd 3.1 to 4; details: plain residues with an end cap or a label only (N-terminal biotin on a linker: ado-ado)
Sequence (Q07157 416-512): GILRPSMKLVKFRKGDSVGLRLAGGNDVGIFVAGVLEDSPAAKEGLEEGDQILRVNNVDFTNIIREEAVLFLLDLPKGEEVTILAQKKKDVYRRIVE

pKd | Binder
below the threshold | PKLMGVETVV [DUSP10, Q9Y6W6]
